Measured values taken from publication doi:10.1101/494930.
Read-outs that look alike come from different tables or passages of the source.

Experiments:
[1] = biological target: BiP-His6 (WT-BiP, aa 19-637) (human) (UniProt P11021); experiment: BLI
[2] = biological target: BiP-His6 (WT-BiP, aa 19-637) (human) (UniProt P11021); experiment: BLI; remark: listed apart in the source

BiP-His6 (WT-BiP, aa 19-637) (human), sequence (P11021 19-637): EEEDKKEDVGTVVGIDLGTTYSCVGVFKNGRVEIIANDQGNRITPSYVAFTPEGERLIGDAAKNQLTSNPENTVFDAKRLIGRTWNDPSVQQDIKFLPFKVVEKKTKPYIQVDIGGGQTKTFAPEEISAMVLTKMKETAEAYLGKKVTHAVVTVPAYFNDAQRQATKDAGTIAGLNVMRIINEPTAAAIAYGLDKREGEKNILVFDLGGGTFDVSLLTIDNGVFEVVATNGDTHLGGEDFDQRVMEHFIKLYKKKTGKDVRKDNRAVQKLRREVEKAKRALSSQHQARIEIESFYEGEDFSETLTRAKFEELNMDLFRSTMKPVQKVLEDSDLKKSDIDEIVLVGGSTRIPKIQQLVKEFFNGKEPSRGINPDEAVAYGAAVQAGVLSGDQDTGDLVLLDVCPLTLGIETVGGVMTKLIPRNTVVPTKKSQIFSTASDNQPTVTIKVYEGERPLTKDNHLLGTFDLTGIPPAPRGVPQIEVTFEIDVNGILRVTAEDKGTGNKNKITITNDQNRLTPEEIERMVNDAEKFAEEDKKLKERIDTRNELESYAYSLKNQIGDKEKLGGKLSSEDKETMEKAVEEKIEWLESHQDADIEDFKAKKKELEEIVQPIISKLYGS

Substance “E234G-HYPE (aa 102-458) (from UniProt Q9BVA6) (enzyme)” has a Kd [1] of 18 µM and a Kd [2] of 10.2 µM.
